Measured values: patent US20150139996A1
Where two headings read alike, the source gives them in different places.

Key:
[1] = target: IgG1 heavy chain with CH3 construct 69 (L351D, L368E) (human) [IgG part: P01857]; test: SDS-PAGE of protein A-purified supernatant; construct expressed alone
[2] = target: IgG1 heavy chain with CH3 construct 69 (L351D, L368E) (human) [IgG part: P01857]; test: native MS (peak height); Tr. 4; CC = DE-DE homodimer of 1025-DE
[3] = target: IgG1 heavy chain with CH3 construct 2 (K392D, K409D) (human) [IgG part: P01857]; test: native MS (peak height); transfection #9 of Table 24; crossed dimer B/69 with D/2
[4] = target: IgG1 heavy chain with CH3 construct 68 (T366K, L351K) (human) [IgG part: P01857]; test: batch test before the pK study; 1516:1337 (MF1516 on DE-side, MF1337 on KK-side)
[5] = target: IgG1 heavy chain with CH3 construct 69 (L351D, L368E) (human) [IgG part: P01857]; test: native MS of gel filtrated sample 1516:1337 (MF1516 on DE-side)
[6] = target: IgG1 heavy chain with CH3 construct 69 (L351D, L368E) (human) [IgG part: P01857]; test: native MS; combination 12 co-expressed (A: VH MF1337, B: VH MF1122)
[7] = target: IgG1 heavy chain with CH3 construct 69 (L351D, L368E) (human) [IgG part: P01857]; test: native MS; combination 3 co-expressed (A: VH MF1337, B: VH MF1122)
[8] = target: IgG1 heavy chain with CH3 construct 69 (L351D, L368E) (human) [IgG part: P01857]; test: native MS (peak height); Tr. 2; AA = DE-DE homodimer of 1337-DE
[9] = target: IgG1 heavy chain with CH3 construct 69 (L351D, L368E) (human) [IgG part: P01857]; test: native MS (peak height); Tr. 1, 2:1:1; AC = 1337-KK with 1025-DE
[10] = target: IgG1 heavy chain with CH3 construct 68 (T366K, L351K) (human) [IgG part: P01857]; test: SDS-PAGE of protein A-purified supernatant; construct expressed alone
[11] = target: IgG1 heavy chain with CH3 construct 68 (T366K, L351K) (human) [IgG part: P01857]; test: native MS; combination 8 co-expressed (A: VH MF1337, B: VH MF1122)
[12] = target: IgG1 heavy chain with CH3 construct 72 (L351D, R355D) (human) [IgG part: P01857]; test: as above
[13] = target: IgG1 heavy chain with CH3 construct 68 (T366K, L351K) (human) [IgG part: P01857]; test: native MS; combination 10 co-expressed (A: VH MF1337, B: VH MF1122)
[14] = target: IgG1 heavy chain with CH3 construct 74 (L351D, Y349D) (human) [IgG part: P01857]; test: as above
[15] = target: IgG1 heavy chain with CH3 construct 69 (L351D, L368E) (human) [IgG part: P01857]; test: native MS (peak height); Tr. 2, 2:1:1; AB = 1122-KK with 1337-DE
[16] = target: IgG1 heavy chain with CH3 construct 69 (L351D, L368E) (human) [IgG part: P01857]; test: native MS (peak height); Tr. 8, 1:1:2; AC = 1337-KK with 1025-DE
[17] = target: IgG1 heavy chain with CH3 construct 69 (L351D, L368E) (human) [IgG part: P01857]; test: native MS (peak height); Tr. 3, 1:2:1; BC = 1025-KK with 1122-DE
[18] = target: IgG1 heavy chain with CH3 construct 68 (T366K, L351K) (human) [IgG part: P01857]; test: native MS; combination 7 co-expressed (A: VH MF1337, B: VH MF1122)
[19] = target: IgG1 heavy chain with CH3 construct 63 (L351D) (human) [IgG part: P01857]; test: as above
[20] = target: IgG1 heavy chain with CH3 construct 69 (L351D, L368E) (human) [IgG part: P01857]; test: native MS (peak height); Tr. 11; by a transfection error 1025-DE stood with 1337-KK instead of 1122-KK
[21] = target: IgG1 heavy chain with CH3 construct 69 (L351D, L368E) (human) [IgG part: P01857]; test: native MS (peak height); Tr. 6, 1:1:2; BB = 1122-KK with 1122-DE
[22] = target: IgG1 heavy chain with CH3 construct 68 (T366K, L351K) (human) [IgG part: P01857]; test: native MS; combination 12 co-expressed (A: VH MF1337, B: VH MF1122)
[23] = target: IgG1 heavy chain with CH3 construct 69 (L351D, L368E) (human) [IgG part: P01857]; test: native MS (peak height); Tr. 7, 2:1:1; AC = 1337-KK with 1025-DE
[24] = target: IgG1 heavy chain with CH3 construct 69 (L351D, L368E) (human) [IgG part: P01857]; test: native MS (peak height); Tr. 5, 2:1:1; AA = 1337-KK with 1337-DE
[25] = target: IgG1 heavy chain with CH3 construct 69 (L351D, L368E) (human) [IgG part: P01857]; test: native MS (peak height); Tr. 1, 2:1:1; AB = 1337-KK with 1122-DE
[26] = target: IgG1 heavy chain with CH3 construct 69 (L351D, L368E) (human) [IgG part: P01857]; test: native MS (peak height); Tr. 4, 1:1:2; AC = 1337-KK with 1025-DE
[27] = target: IgG1 heavy chain with CH3 construct 69 (L351D, L368E) (human) [IgG part: P01857]; test: native MS (peak height); Tr. 2, 2:1:1; AC = 1025-KK with 1337-DE
[28] = target: IgG1 heavy chain with CH3 construct 69 (L351D, L368E) (human) [IgG part: P01857]; test: native MS (peak height); Tr. 3, 1:2:1; AB = 1337-KK with 1122-DE
[29] = target: IgG1 heavy chain with CH3 construct 69 (L351D, L368E) (human) [IgG part: P01857]; test: native MS (peak height); Tr. 9, 1:1; 1337-KK with 1122-DE
[30] = target: IgG1 heavy chain with CH3 construct 69 (L351D, L368E) (human) [IgG part: P01857]; test: native MS (peak height); Tr. 4, 1:1:2; BC = 1122-KK with 1025-DE
[31] = target: IgG1 heavy chain with CH3 construct 71 (L351D, Y349E) (human) [IgG part: P01857]; test: native MS; combination 11 co-expressed (A: VH MF1337, B: VH MF1122)
[32] = target: IgG1 heavy chain with CH3 construct 68 (T366K, L351K) (human) [IgG part: P01857]; test: as above
[33] = target: IgG1 heavy chain with CH3 construct 69 (L351D, L368E) (human) [IgG part: P01857]; test: native MS (peak height); Tr. 8, 1:1:2; CC = 1025-KK with 1025-DE
[34] = target: IgG1 heavy chain with CH3 construct 69 (L351D, L368E) (human) [IgG part: P01857]; test: native MS (peak height); Tr. 6, 1:1:2; AB = 1337-KK with 1122-DE
[35] = target: IgG1 heavy chain with CH3 construct 69 (L351D, L368E) (human) [IgG part: P01857]; test: native MS (peak height); Tr. 10, 1:1; 1337-KK with 1025-DE
[36] = target: IgG1 heavy chain with CH3 construct 69 (L351D, L368E) (human) [IgG part: P01857]
[37] = target: IgG1 heavy chain with CH3 construct 69 (L351D, L368E) (human) [IgG part: P01857]; test: native MS (peak height); Tr. 5, 2:1:1; AB = 1337-KK with 1122-DE
[38] = target: IgG1 heavy chain with CH3 construct 69 (L351D, L368E) (human) [IgG part: P01857]; test: native MS (peak height); transfection #11 of Table 24; AB = A/68 with B/69
[39] = target: IgG1 heavy chain with CH3 construct 75 (L351D, Y349D, R355D) (human) [IgG part: P01857]; test: native MS; combination 9 co-expressed (A: VH MF1337, B: VH MF1122)
[40] = target: IgG1 heavy chain with CH3 construct 68 (T366K, L351K) (human) [IgG part: P01857]; test: as above
[41] = target: IgG1 heavy chain with CH3 construct 69 (L351D, L368E) (human) [IgG part: P01857]; test: native MS (peak height); Tr. 7, 2:1:1; AA = 1337-KK with 1337-DE

## IgG1 heavy chain with CH3 construct 69 (L351D, L368E) (from UniProt P01857-1)
[1]
  % IgG: 83.7%
  % half molecule: 16.3%
[2]
  Observed species (%): 1%
[3]
  percent of species in the mixture: 3%
[4]
  percent bispecific IgG: > 90%
[5]
  percent of species in the sample: 2%
[6]
  % BB found: 0%
[7]
  % BB found: 0%
[8]
  Observed species (%): 6%

## IgG1 heavy chain with CH3 construct 68 (T366K, L351K) (from UniProt P01857-1)
[9]
  Observed species (%): 57%
[10]
  % IgG: 34.7%
  % half molecule: 65.3%
[11]
  % AA found: 0%
[12]
  % AB found: 79%
[13]
  % AA found: 1%
[14]
  % AB found: 95%
[15]
  Observed species (%): 40%
[16]
  Observed species (%): 60%
[17]
  Observed species (%): 46%
[18]
  % AA found: 0%
[19]
  % AB found: 77%
[20]
  Observed species (%): > 98%
[21]
  Observed species (%): 25%
[6]
  % AB found: 92%
[22]
  % AA found: 0%
[23]
  Observed species (%): 54%
[24]
  Observed species (%): 57%
[25]
  Observed species (%): 43%
[26]
  Observed species (%): 66%
[27]
  Observed species (%): 54%
[28]
  Observed species (%): 54%
[29]
  Observed species (%): > 98%
[30]
  Observed species (%): 33%
[31]
  % AB found: 95%
[32]
  % AA found: 1%
[33]
  Observed species (%): 40%
[34]
  Observed species (%): 75%
[35]
  Observed species (%): > 98%
[36]
  percent of species in the mixture: 30%
[37]
  Observed species (%): 43%
[38]
  percent of species in the mixture: 33%
[39]
  % AB found: 93%
[40]
  % AA found: 1%
[41]
  Observed species (%): 46%
